Reference: publication doi:10.1101/569251 (bioRxiv, 2019)

Biological target: the molecule itself

B1: SEPT7 (residues 29-437) with N-terminal His-tag (domain or fragment, human, UniProt Q16181-1 29-437, looked up)
chain: GYVGFANLPNQVYRKSVKRGFEFTLMVVGESGLGKSTLINSLFLTDLYSPEYPGPSHRIKKTVQVEQSKVLIKEGGVQLLLTIVDTPGFGDAVDNSNCWQPVIDYIDSKFEDYLNAESRVNRRQMPDNRVQCCLYFIAPSGHGLKPLDIEFMKRLHEKVNIIPLIAKADTLTPEECQQFKKQIMKEIQEHKIKIYEFPETDDEEENKLVKKIKDRLPLAVVGSNTIIEVNGKRVRGRQYPWGVAEVENGEHCDFTILRNMLIRTHMQDLKDVTNNVHYENYRSRKLAAVTYNGVDNNKNKGQLTKSPLAQMEEERREHVAKMKKMEMEMEQVFEMKVKEKVQKLKDSEAELQRRHEQMKKNLEAQHKELEEKRRQFEDEKANWEAQQRILEQQNSSRTLEKNKKKGKIF
binding result: binds
